Test results as given in US20090099065A1, “Acylated Single Chain Insulin” (Novo Nordisk A/S, priority 2006, published 2009).

Tests used:
[1] = molecular target: purified recombinant human insulin receptor-exon 11 (human) (UniProt P06213); assay: assay (I): SPA, displacement of A14 Tyr[125I]-human insulin from recombinant human insulin receptor
human insulin receptor = human insulin receptor (Homo sapiens, UniProt P06213); assay: Assay (I): insulin receptor binding, SPA microtiterplate antibody capture assay; conditions: purified recombinant human insulin receptor - exon 11; A14 Tyr[125I]-human insulin tracer; human insulin = 100%
Description: Insulin Receptor Binding of the Acylated, Single-Chain Insulin
The affinity of the acylated, single-chain insulins for the human insulin receptor can be determined by a SPA assay (Scintillation Proximity Assay) microtiterplate antibody capture assay. SPA-PVT antibody-binding beads, anti-mouse reagent (Amersham Biosciences, Cat No. PRNQ0017) are mixed with 25 ml of binding buffer (100 mM HEPES pH 7.8; 100 mM sodium chloride, 10 mM MgSO4, 0.025% Tween-20). Reagent mix for a single Packard Optiplate (Packard No. 6005190) is composed of 2.4 μl of a 1:5000 diluted purified recombinant human insulin receptor—exon 11, an amount of a stock solution of A14 Tyr[125I]-human insulin corresponding to 5000 cpm per 100 μl of reagent mix, 12 μl of a 1:1000 dilution of F12 antibody, 3 ml of SPA-beads and binding buffer to a total of 12 ml. A total of 100 μl is then added and a dilution series is made from appropriate samples. To the dilution series is then added 100 μl of reagent mix and the samples are incubated for 16 hours while gently shaken. The phases are then separated by centrifugation for 1 min and the plates counted in a Topcounter. The binding data are fitted using the nonlinear regression algorithm in the GraphPad Prism 2.01 (GraphPad Software, San Diego, Calif.).

Sequence of purified recombinant human insulin receptor-exon 11 (human) (P06213 other isoform, or with tags, fused parts or gaps limits assumed, form in doubt): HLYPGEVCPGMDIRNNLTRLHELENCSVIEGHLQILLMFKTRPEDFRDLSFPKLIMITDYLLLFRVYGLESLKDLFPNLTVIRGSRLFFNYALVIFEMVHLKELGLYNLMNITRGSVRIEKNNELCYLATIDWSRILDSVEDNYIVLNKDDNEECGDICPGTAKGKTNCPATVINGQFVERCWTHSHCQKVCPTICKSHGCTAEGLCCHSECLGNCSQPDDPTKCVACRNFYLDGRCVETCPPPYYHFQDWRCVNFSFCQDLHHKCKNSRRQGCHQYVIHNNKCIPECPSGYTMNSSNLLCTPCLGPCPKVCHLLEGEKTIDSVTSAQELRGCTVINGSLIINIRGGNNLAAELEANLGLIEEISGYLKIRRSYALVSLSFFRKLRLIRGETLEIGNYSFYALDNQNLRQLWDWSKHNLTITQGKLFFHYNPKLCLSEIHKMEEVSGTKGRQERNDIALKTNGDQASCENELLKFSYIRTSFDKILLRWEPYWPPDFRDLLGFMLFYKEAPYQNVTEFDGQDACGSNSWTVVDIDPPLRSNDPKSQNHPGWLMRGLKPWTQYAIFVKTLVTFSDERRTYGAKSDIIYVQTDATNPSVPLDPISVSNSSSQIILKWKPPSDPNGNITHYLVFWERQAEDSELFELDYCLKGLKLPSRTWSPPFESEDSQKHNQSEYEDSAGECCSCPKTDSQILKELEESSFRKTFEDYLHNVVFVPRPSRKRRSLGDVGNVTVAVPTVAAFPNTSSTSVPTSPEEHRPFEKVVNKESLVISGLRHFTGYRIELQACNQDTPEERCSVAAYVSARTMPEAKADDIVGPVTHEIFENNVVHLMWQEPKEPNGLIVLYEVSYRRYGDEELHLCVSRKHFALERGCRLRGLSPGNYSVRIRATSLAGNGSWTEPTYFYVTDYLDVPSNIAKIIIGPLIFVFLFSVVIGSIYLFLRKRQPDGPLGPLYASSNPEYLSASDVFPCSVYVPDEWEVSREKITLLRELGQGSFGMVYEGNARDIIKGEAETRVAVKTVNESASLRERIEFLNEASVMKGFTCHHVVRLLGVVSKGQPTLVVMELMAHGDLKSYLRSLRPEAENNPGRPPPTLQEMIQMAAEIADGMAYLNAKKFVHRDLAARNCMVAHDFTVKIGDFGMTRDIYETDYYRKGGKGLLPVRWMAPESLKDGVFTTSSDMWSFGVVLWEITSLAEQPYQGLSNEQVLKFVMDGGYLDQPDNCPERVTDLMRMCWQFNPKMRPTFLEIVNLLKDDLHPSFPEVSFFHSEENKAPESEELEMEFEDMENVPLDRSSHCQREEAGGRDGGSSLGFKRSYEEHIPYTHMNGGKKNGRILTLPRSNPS
Sequence of human insulin receptor (P06213 28-746 isoform P06213-2 limits assumed): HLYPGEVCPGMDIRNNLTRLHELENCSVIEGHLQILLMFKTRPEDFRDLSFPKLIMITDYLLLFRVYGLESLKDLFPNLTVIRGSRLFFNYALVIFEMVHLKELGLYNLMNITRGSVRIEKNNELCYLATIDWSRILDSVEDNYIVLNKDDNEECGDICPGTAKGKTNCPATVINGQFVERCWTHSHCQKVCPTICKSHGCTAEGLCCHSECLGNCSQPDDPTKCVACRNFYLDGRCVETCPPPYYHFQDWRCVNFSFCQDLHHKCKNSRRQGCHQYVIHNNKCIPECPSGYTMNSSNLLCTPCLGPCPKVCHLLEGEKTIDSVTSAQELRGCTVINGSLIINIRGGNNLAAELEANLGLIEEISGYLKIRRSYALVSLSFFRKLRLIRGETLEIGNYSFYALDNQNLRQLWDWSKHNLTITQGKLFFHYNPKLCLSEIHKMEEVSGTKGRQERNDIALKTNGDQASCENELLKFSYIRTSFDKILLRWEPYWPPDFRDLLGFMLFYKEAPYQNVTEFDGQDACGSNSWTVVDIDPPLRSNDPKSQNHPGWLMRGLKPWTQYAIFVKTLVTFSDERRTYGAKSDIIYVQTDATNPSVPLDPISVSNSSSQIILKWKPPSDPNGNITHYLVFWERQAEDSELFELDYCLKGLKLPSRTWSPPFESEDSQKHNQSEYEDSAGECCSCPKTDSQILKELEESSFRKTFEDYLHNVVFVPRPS
Sequence of human insulin receptor (P06213 763-1382 partner limits assumed): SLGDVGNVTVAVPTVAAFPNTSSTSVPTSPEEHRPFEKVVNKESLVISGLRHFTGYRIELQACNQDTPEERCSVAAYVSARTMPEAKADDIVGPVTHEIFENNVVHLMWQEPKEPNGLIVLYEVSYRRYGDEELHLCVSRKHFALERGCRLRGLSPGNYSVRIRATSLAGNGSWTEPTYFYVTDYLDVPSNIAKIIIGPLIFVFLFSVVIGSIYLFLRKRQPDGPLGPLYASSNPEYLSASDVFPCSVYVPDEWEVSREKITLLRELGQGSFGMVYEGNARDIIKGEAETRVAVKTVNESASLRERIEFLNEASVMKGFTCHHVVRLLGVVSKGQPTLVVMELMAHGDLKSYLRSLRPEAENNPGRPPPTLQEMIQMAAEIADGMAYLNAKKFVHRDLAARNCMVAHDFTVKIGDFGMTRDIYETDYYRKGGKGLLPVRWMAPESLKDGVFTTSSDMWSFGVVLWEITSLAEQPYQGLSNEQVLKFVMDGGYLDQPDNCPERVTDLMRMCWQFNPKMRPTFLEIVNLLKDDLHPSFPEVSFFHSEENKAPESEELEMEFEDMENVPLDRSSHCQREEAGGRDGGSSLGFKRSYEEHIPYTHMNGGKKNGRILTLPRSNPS

| Substance | insulin receptor binding relative to that of human insulin [1] [%] | insulin receptor binding relative to that of human insulin (human insulin receptor) [%] |
| --- | --- | --- |
| B(1-29)-B29A-VGLSSGQ-A(1-21)-A8K(N(eps)hexadecandioyl-gGlu)-A18Q Human Insulin (from UniProt P01308 25-53; P01308 90-110) (ligand) | 73 |  |
| B(1-29)-B29A-VGLSSGQ-A(1-21)-A8K(N(eps)hexadecandioyl-gGlu)-A18Q Human Insulin [Example 6] |  | 73 |
| B(1-29)-B29A-VGLSSGQ-A(1-21)-A15K(N(eps)-hexadecandioyl-g-L-Glu)-A18Q Human Insulin (from UniProt P01308 25-53; P01308 90-110) (ligand) | 17.4 |  |
| B(1-29)-B29A-VGLSSGQ-A(1-21)-A15K(N(eps)-hexadecandioyl-g-L-Glu)-A18Q Human Insulin [Example 9] |  | 17.4 |
| B(1-29)-B29A-VGLSSGQ-A(1-21)-A18K(N(eps)hexadecandioyl-gGlu) Human Insulin (from UniProt P01308 25-53; P01308 90-110) (ligand) | 25 |  |
| B(1-29)-B29A-VGLSSGQ-A(1-21)-A18K(N(eps)hexadecandioyl-gGlu) Human Insulin [Example 1] |  | 25 |
| B(1-29)-B29A-VGLSSGQ-A(1-21)-A18K(N(eps)myristoyl) Human Insulin (from UniProt P01308 25-53; P01308 90-110) (ligand) | 27 |  |
| B(1-29)-B29A-VGLSSGQ-A(1-21)-A18K(N(eps)myristoyl) Human Insulin [Example 3] |  | 27 |
| B(1-29)-B29A-VGLSSGQ-A(1-22)-A18Q, A22K(N(eps)hexadecandioyl-gGlu) Human Insulin (from UniProt P01308 25-53; P01308 90-110) (ligand) | 44 |  |
| B(1-29)-B29A-VGLSSGQ-A(1-22)-A18Q, A22K(N(eps)hexadecandioyl-gGlu) Human Insulin [Example 4] |  | 44 |
| B(1-29)-B29A-VGLSSGQ-A(1-22)-A18Q, A22K(N(eps)myristoyl) Human Insulin (from UniProt P01308 25-53; P01308 90-110) (ligand) | 62 |  |
| B(1-29)-B29A-VGLSSGQ-A(1-22)-A18Q, A22K(N(eps)myristoyl) Human Insulin [Example 2] |  | 62 |
| B(1-29)-B29A-VGLSSGQ-A(1-22)-A18Q, A22K(N(eps)octadecandioyl) Human Insulin (from UniProt P01308 25-53; P01308 90-110) (ligand) | 24 |  |
| B(1-29)-B29A-VGLSSGQ-A(1-22)-A18Q, A22K(N(eps)octadecandioyl) Human Insulin [Example 5] |  | 24 |
| B(1-29)-B29A-VGLSSGQ-A(1-22)-A18Q-A22K((eps)heptadecandioyl-g-Glu) Human Insulin (from UniProt P01308 25-53; P01308 90-110) (ligand) | 43 |  |
| B(1-29)-B29A-VGLSSGQ-A(1-22)-A18Q-A22K((eps)heptadecandioyl-g-Glu) Human Insulin [Example 10] |  | 43 |
| B(1-29)-B29H-TGLGSGR-A(1-21)-A18K(N-eps-hexadecandioyl-g-L-Glu)-A21 G Human insulin (from UniProt P01308 25-53; P01308 90-110) (ligand) | 45.7 |  |
| B(1-29)-B29H-TGLGSGR-A(1-21)-A18K(N-eps-hexadecandioyl-g-L-Glu)-A21 G Human insulin [Example 7] |  | 45.7 |
| B(1-29)-B29Q-TGLGSCR-A(1-22)-A18Q, A21 G-A22K(N (eps)hexadecand ioyl-g-LGlu) Human Insulin (from UniProt P01308 25-53; P01308 90-110) (ligand) | 113 |  |
| B(1-29)-B29Q-TGLGSCR-A(1-22)-A18Q, A21 G-A22K(N (eps)hexadecand ioyl-g-LGlu) Human Insulin [Example 8] |  | 112.8 |
